# Source: the supplement of paper PMC9233669
# Fewer inactive variants are shown than the library holds.
# Assays:
# biotinyl-Phe-oxazolone = test: self-aminoacylation, catalytic enhancement (BFO) (fold over background); higher = more active; k-Seq, kA / k0A0; sequences stand for … in GGGAAUGGAUCCACAUCUACGAAUUC…UUCACUGCAGACUUGACGAAGCUG
# Method in brief: (§1)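 Catalytic enhancement equals the median kA over the uncatalyzed rate, the latter read from the low-activity peak of a bimodal Gaussian fit. Values of kA came from fitting each sequence's fraction reacted to a pseudo-first-order model, with 1000 bootstraps. Reacted RNA was captured with streptavidin and quantified by triplicate qPCR and Illumina sequencing after 90 minutes at room temperature with 2–1250 μM biotinyl-aminoacyl-oxazolone and 0.43 μM mutagenized RNA pools bearing a 21-nt variable region.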
# biotinyl-Val-oxazolone = test: self-aminoacylation, catalytic enhancement (BVO) (fold over background); higher = more active; k-Seq, kA / k0A0; sequences stand for … in GGGAAUGGAUCCACAUCUACGAAUUC…UUCACUGCAGACUUGACGAAGCUG
# Method in brief: as §1
# biotinyl-Ile-oxazolone = test: self-aminoacylation, catalytic enhancement (BIO) (fold over background); higher = more active; k-Seq, kA / k0A0; sequences stand for … in GGGAAUGGAUCCACAUCUACGAAUUC…UUCACUGCAGACUUGACGAAGCUG
# Method in brief: as §1
# biotinyl-Leu-oxazolone = test: self-aminoacylation, catalytic enhancement (BLO) (fold over background); higher = more active; k-Seq, kA / k0A0; sequences stand for … in GGGAAUGGAUCCACAUCUACGAAUUC…UUCACUGCAGACUUGACGAAGCUG
# Method in brief: as §1
# biotinyl-Trp-oxazolone = test: self-aminoacylation, catalytic enhancement (BWO) (fold over background); higher = more active; k-Seq, kA / k0A0; sequences stand for … in GGGAAUGGAUCCACAUCUACGAAUUC…UUCACUGCAGACUUGACGAAGCUG
# Method in brief: as §1
# biotinyl-Met-oxazolone = test: self-aminoacylation, catalytic enhancement (BMO) (fold over background); higher = more active; k-Seq, kA / k0A0; sequences stand for … in GGGAAUGGAUCCACAUCUACGAAUUC…UUCACUGCAGACUUGACGAAGCUG
# Method in brief: as §1
Sequence,self-aminoacylation (biotinyl-Phe-oxazolone),self-aminoacylation (biotinyl-Val-oxazolone),self-aminoacylation (biotinyl-Ile-oxazolone),self-aminoacylation (biotinyl-Leu-oxazolone),self-aminoacylation (biotinyl-Trp-oxazolone),self-aminoacylation (biotinyl-Met-oxazolone)
AUUACCAUGGUCAUCGGGUGA [Fam2.1 aminoacylation ribozyme variant],96,7.28,6.52,13.6,16.2,14.7
AUUGACCUAGGGCAUCGGGUG [Fam2.2 aminoacylation ribozyme variant],17,3.28,3.23,3.63,4.66,3.13
CGACACUUCAAGAAAUCGGUC [Fam1B.1 aminoacylation ribozyme variant],3.41,1.26,1.62,1.24,2.88,1.25
AUUACCUUGGUCAUCGAGUGG [Fam2.1 aminoacylation ribozyme variant],1.64,1.45,1.67,2.13,0.873,2.08
CUUCUUAAAACAAUCGGUCUG [Fam1A.1 aminoacylation ribozyme variant],0.699,0.748,0.859,0.739,0.564,0.895
AUUCACCCAGGUAAUCGGGUG [Fam2.2 aminoacylation ribozyme variant],18.6,2.14,2.26,3.88,2.46,3.1
GUUCACCUAGGUCAUCGGUUG [Fam2.2 aminoacylation ribozyme variant],2.93,1.11,1.17,1.38,1.41,1.09
AUUCAGCUAGGUUAUCGGGUG [Fam2.2 aminoacylation ribozyme variant],60.4,5.16,5.01,9.36,8.86,7.59
CCAGACUUCAAGCAAACGGUC [Fam1B.1 aminoacylation ribozyme variant],0.824,0.811,0.706,0.628,0.814,0.591
AUUACCCUGGUUAUCGCGUGA [Fam2.1 aminoacylation ribozyme variant],93.6,6.04,4.99,11.6,13.5,12.4
CUACUACUAACAAUCGGUCUG [Fam1A.1 aminoacylation ribozyme variant],1,0.673,0.764,0.495,0.466,0.729
AUUCACCUAGGACGUCGGGUG [Fam2.2 aminoacylation ribozyme variant],9.18,1.88,1.66,1.91,1.42,1.91
CUACUUCAAACCAUCGGUCCG [Fam1A.1 aminoacylation ribozyme variant],0.607,0.922,0.761,0.996,0.99,0.868
AUUACCCUGUUCAUCGCGUGA [Fam2.1 aminoacylation ribozyme variant],171,11.7,9.25,25.1,25.5,23.5
AUUCACCUAGGUCUUCGCGUG [Fam2.2 aminoacylation ribozyme variant],16.6,3.96,2.95,4.5,3.32,4.3
AAAUAUGCUAAUAGUCGCAAG [Fam3.1 aminoacylation ribozyme variant],2.27,1.55,2.03,1.44,2.25,1.45
AUUCACCUAGAUCGUCGGGUG [Fam2.2 aminoacylation ribozyme variant],3.8,1.38,1.14,1.3,0.967,1.06
GUUACCCUGGUCAUCGAGUAA [Fam2.1 aminoacylation ribozyme variant],93.6,7.98,6.86,21.8,18.7,22.6
GUUACCCUGGUCAUCGAGUGC [Fam2.1 aminoacylation ribozyme variant],33.8,4.94,4.28,13,9.64,12.9
AUUCACCUAGGAAAUCGGGUG [Fam2.2 aminoacylation ribozyme variant],53,3.5,4.03,8.95,5.87,6.99
AUUACCCUGGUCCUCGCGUGA [Fam2.1 aminoacylation ribozyme variant],87.3,7.66,5.45,15.1,13.8,11
AUUGACCUACGUCAUCGGGUG [Fam2.2 aminoacylation ribozyme variant],40.6,3.81,3.13,6.43,5.9,4.72
UGUACCCUGGUCAUCGAGUGA [Fam2.1 aminoacylation ribozyme variant],10.3,3.66,4.06,7.2,8.02,5.72
AUUCACCUAGGUCAUGGGGUA [Fam2.2 aminoacylation ribozyme variant],1,1.83,1.96,1.88,1.56,2.13
CCACACUUCAAGCUAUGGGUC [Fam1B.1 aminoacylation ribozyme variant],0.774,0.911,0.966,0.763,0.724,0.875
CUUCACCUAGGUCAUUGGGUG [Fam2.2 aminoacylation ribozyme variant],12.3,2.22,1.98,2.25,2.35,2.36

Sequence,self-aminoacylation (biotinyl-Phe-oxazolone),self-aminoacylation (biotinyl-Val-oxazolone),self-aminoacylation (biotinyl-Ile-oxazolone),self-aminoacylation (biotinyl-Leu-oxazolone),self-aminoacylation (biotinyl-Trp-oxazolone),self-aminoacylation (biotinyl-Met-oxazolone)
CCACACUUCAAGGAAUCGGUG [Fam1B.1 aminoacylation ribozyme variant],52.1,4.61,4.9,10.5,6.57,7.21
AUUCACCUAGGUCAUCUGCUG [Fam2.2 aminoacylation ribozyme variant],2.81,0.81,0.819,0.964,0.391,0.724
CCACACUUCACGAAAUCGGUC [Fam1B.1 aminoacylation ribozyme variant],0.814,1.09,0.987,1.16,1.02,1.07
AUUACCCAUGUCAUCGAGUGA [Fam2.1 aminoacylation ribozyme variant],34.3,4.43,4.15,8.07,9.9,7.7
AUUACAUUGGUCAUCGAGUGA [Fam2.1 aminoacylation ribozyme variant],22.8,2.95,3.03,5.8,6.85,5.35
ACUACCCUGGACAUCGAGUGA [Fam2.1 aminoacylation ribozyme variant],20.6,2.92,2.55,6.83,7.37,7.03
AAGUUUGAUAAUAGUCUCAAG [Fam3.1 aminoacylation ribozyme variant],1.46,0.703,0.737,0.638,0.754,0.731
AUUACCCUAGUCAUCGAGCGA [Fam2.1 aminoacylation ribozyme variant],0.894,1.32,1.3,1.2,1.21,1.38
CUACUUCAAACAACCUGUCUG [Fam1A.1 aminoacylation ribozyme variant],0.494,0.736,0.74,0.589,0.325,0.52
CUACUUGUAACAAUCGGUCUG [Fam1A.1 aminoacylation ribozyme variant],0.824,0.658,0.651,0.678,0.573,0.806
CUUCUUCAAAAAAUCGGUCUG [Fam1A.1 aminoacylation ribozyme variant],6.58,0.851,1,1.02,5.39,0.902
AUUACCCUGCACAUCGAGUGA [Fam2.1 aminoacylation ribozyme variant],29.8,3.65,3.01,7.49,8.38,6.87
CCACACUUCAAGCUAUCGGGC [Fam1B.1 aminoacylation ribozyme variant],1.57,1.76,1.67,1.45,2.2,1.46
AACUUUGCUAAUAGUCGUAAG [Fam3.1 aminoacylation ribozyme variant],3.97,1.28,1.44,1.59,2.33,1.21
AUCACCCUGGUCAUAGAGUGA [Fam2.1 aminoacylation ribozyme variant],85.7,4.92,5.17,13.2,13.2,13.6
AGGUUUGCUAAUAAUCGCAAG [Fam3.1 aminoacylation ribozyme variant],1.91,0.949,0.899,0.822,0.725,0.753
AUCACUCUGGUCAUCGAGUGA [Fam2.1 aminoacylation ribozyme variant],13.9,2.9,3.2,3.85,4.03,3.12
AUUCACCUAGGUCAUCGCGUG [Fam2.2 aminoacylation ribozyme variant],100,7.35,7.1,17.4,11.5,13
GAGUCUGCUAAUAGUCGCAAG [Fam3.1 aminoacylation ribozyme variant],46.9,1.63,1.99,2.07,14,2.34
AAGUUUGCUAAUAGUCGCUAA [Fam3.1 aminoacylation ribozyme variant],1.96,1.21,1.33,1.2,1.53,1.13
AUUCACCUAUGUCCUCGGGUG [Fam2.2 aminoacylation ribozyme variant],21.6,2.04,2.17,4.03,3.42,3.04
CCACACUUGAAGCAAUCGGUA [Fam1B.1 aminoacylation ribozyme variant],0.696,1.25,1.07,1.13,0.948,0.976
CUACUUCAAACAAUCGGGCGG [Fam1A.1 aminoacylation ribozyme variant],1.71,1.4,1.63,1.31,1.79,1.53
AUUCACCUAGGUAAUCGGGUA [Fam2.2 aminoacylation ribozyme variant],5.56,1.47,1.39,1.33,1.8,1.55
AAUCACCUAGGUCAUCGGGCG [Fam2.2 aminoacylation ribozyme variant],7.85,2.77,3.35,4.1,3.94,4.05
